B1: BTB/POZ domain-containing protein 3 (Schizosaccharomyces pombe (strain ATCC 38366 / 972)), Q10225 (parent)
chain: MASQDQNTGTTHVELQGGENSKKLFSKYDLWSKAMDEKKLSSSLFTVNDTQEFLELCEACRRGDLEVVKSLVENYNTPINQVDQFDYSPLVLASLCGHEPVVKFLLENGALCERDTFQGERCLYGALNDNIRRMLLSYDITKAIDESQPYASHITSLLSNSALHFTTDIVFAGQYGRVFAHKFYLAARSSYFKSKFSKLGPSEHEIEVKHFAKEFESILRYLYLDTNAVFTKQYNNALLSIGKKFQLNDFIALYEKDREQLHSRDWKKIQLAKTQNDLGEFLDYIISNYKVPIESLNQPSDQYSFHDAYLQSYTHRYPVHRAIMCRCEYFLDMLAGPFLESNQELPVLSLPFSSSVVEIVLKFLYTDKTDIAPELALDVVYVADMLSLDKDRSLKSLASIVITKQEEPIDSIYDILRTAWDTSTPRLEQYASEYMANHLEHLIDDPEFCELVKESADRILQRQETDTIELIDDIRYFLSKRFGIYHEDLCIDGVVDTLTPYESEYNQKMEMIDDLLDKLELQA
partner: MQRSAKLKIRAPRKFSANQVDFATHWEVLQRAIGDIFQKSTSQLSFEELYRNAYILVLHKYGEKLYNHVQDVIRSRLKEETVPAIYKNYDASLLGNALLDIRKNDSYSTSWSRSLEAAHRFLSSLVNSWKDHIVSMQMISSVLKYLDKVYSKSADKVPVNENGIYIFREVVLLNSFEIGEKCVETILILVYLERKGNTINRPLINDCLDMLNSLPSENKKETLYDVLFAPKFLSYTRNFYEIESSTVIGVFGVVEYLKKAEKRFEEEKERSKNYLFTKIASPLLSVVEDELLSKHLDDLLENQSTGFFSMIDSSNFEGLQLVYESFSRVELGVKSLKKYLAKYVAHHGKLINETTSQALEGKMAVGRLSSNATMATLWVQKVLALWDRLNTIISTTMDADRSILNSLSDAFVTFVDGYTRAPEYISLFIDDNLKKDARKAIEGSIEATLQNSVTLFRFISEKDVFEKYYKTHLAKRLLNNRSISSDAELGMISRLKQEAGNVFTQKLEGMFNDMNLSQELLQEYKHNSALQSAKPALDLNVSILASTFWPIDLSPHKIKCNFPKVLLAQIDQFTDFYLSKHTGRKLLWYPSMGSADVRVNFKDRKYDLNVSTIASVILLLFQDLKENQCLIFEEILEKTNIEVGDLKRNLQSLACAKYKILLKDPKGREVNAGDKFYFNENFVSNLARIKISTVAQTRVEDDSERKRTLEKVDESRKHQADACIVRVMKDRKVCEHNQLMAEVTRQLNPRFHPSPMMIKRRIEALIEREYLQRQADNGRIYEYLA
B2: Cullin-3 (Schizosaccharomyces pombe (strain ATCC 38366 / 972)), Q09760 (parent)
chain: B1 partner
partner: B1 chain

The values that follow come from IntAct's records for PubMed 14527422.

In one assay the parent is B1. The conditions noted are these: with cul3_schpo cul3, Q09760.
Regarding MASQDQNTGTTHVELQGGENSKKLFSKYDLWSKAMDEKKLSSSLFTVNDTQEFLELCEACRRGDLEVVKSLVENYNTPINQVDQFDYSPLVLASLCGHEPVVKFLLENGALCERDTFQGERCLYGALNDNIRRMLLSYDITKAIDESQPYASHITSLLSNSALHFTTAIVFAGQYGRVFAHKFYLAARSSYFKSKFSKLGPSEHEIEVKHFAKEFESILRYLYLDTNAVFTKQYNNALLSIGKKFQLNDFIALYEKDREQLHSRDWKKIQLAKTQNDLGEFLDYIISNYKVPIESLNQPSDQYSFHDAYLQSYTHRYPVHRAIMCRCEYFLDMLAGPFLESNQELPVLSLPFSSSVVEIVLKFLYTDKTDIAPELALDVVYVADMLSLDKDRSLKSLASIVITKQEEPIDSIYDILRTAWDTSTPRLEQYASEYMANHLEHLIDDPEFCELVKESADRILQRQETDTIELIDDIRYFLSKRFGIYHEDLCIDGVVDTLTPYESEYNQKMEMIDDLLDKLELQA [D168A], the “effect of a mutation on the interaction” value was “disrupting interaction”. On to MASQDQNTGTTHVELQGGENSKKLFSKYDLWSKAMDEKKLSSSLFTVNDTQEFLELCEACRRGDLEVVKSLVENYNTPINQVDQFDYSPLVLASLCGHEPVVKFLLENGALCERDTFQGERCLYGALNDNIRRMLLSYDITKAIDESQPYASHITSLLSNSALHFTTDIVFAGQYGRVFALKFYLAARSSYFKSKFSKLGPSEHEIEVKHFAKEFESILRYLYLDTNAVFTKQYNNALLSIGKKFQLNDFIALYEKDREQLHSRDWKKIQLAKTQNDLGEFLDYIISNYKVPIESLNQPSDQYSFHDAYLQSYTHRYPVHRAIMCRCEYFLDMLAGPFLESNQELPVLSLPFSSSVVEIVLKFLYTDKTDIAPELALDVVYVADMLSLDKDRSLKSLASIVITKQEEPIDSIYDILRTAWDTSTPRLEQYASEYMANHLEHLIDDPEFCELVKESADRILQRQETDTIELIDDIRYFLSKRFGIYHEDLCIDGVVDTLTPYESEYNQKMEMIDDLLDKLELQA [H181L], for which the “effect of a mutation on the interaction” value is “disrupting interaction”.

The variants in another assay derive from B2. The conditions noted are these: with btb3_schpo btb3, Q10225.
In the case of Y50G, the “effect of a mutation on the interaction” value is “disrupting interaction”.
